Measurements from patent US20260055155A1, “INCRETIN ANALOG AND USE THEREOF” (SHANGHAI MINWEI BIOTECHNOLOGY CO., LTD, priority 2023, published 2026).
“Also recorded” adds a separate entry of the source. Numbered stars: 1 amine (or outer) side, 2 acyl side, 3 side chain; on linkers, the order of the positions; unused ones are H or OH. Square brackets hold non-standard residues; d marks the D form. Side chains are listed from the residue outwards. Peptide text beside a SMILES is read from it. * marks the point of attachment. C20 diacid = O=C(O)CCCCCCCCCCCCCCCCCCC(=O)*; γGlu = O=C(O)[C@H](CCC(=O)[*:2])N[*:1]; AEEA = NCCOCCOCC(=O)O; Aib = CC(C)(N)C(=O)O

Columns and labels:
GCG receptor = GCG receptor (UniProt P47871); experiment: cell-based or functional assay
GIP receptor (human) = molecular target: T1, GIP receptor (human) (UniProt P48546); experiment: cell-based or functional assay
T1 sequence (looked up): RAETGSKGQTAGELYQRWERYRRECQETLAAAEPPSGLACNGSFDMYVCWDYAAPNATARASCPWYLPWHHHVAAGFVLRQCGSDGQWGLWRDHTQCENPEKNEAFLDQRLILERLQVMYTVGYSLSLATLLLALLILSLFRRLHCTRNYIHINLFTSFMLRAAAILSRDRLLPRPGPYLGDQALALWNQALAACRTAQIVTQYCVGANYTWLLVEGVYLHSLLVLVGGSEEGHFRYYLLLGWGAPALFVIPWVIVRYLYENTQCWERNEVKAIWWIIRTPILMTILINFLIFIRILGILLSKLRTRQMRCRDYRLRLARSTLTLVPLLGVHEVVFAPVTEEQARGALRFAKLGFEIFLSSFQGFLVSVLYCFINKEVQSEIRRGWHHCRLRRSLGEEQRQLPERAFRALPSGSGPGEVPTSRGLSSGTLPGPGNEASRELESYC

[1] = molecular target: human GLP-1 receptor (human) (UniProt P43220); experiment: cell-based or functional assay
[2] = stability of polypeptide in serum (GIP activity read-out with CHOK1-GIPR cells); format: in vitro ADME, cynomolgus monkey; details: for Activity ratio (%, Relative to the sample at 0 h): 100 μg/ml in cynomolgus monkey serum, GIP activity
Procedure: Polypeptide 1 (SEQ ID NO. 1), polypeptide 3 (SEQ ID NO. 3) and control LY3437943 were diluted to 100 μg/ml with cynomolgus monkey serum, divided into 3 pieces with 200 μl/piece, respectively. One sample was placed in a −80° C. refrigerator as a zero reference, and the other two samples were placed in a 37° C. incubator and moved into a −80° C. refrigerator after 24 hours and 72 hours respectively. […] The activity changes of different samples after being placed for different periods of time were compared.

LY3437943 (peptide)
Results of activity in human serum albumin system (GCGR) (GCG receptor): 26 | Results of activity in human serum albumin system (GIPR) (GIP receptor (human)): 3.29 | Results of activity in human serum albumin system (GLP-1R) [1]: 540

GLP-1 (from UniProt P01275 92-128) (ligand)
EC50 (nmol/L), CRE-luciferase reporter in CHO-K1 cells [1]: 1.95 nmol/L

CC[C@H](C)[C@H](NC(=O)[C@H](CCCCNC(=O)COCCOCCNC(=O)CC[C@H](NC(=O)CCCCCCCCCCCCCCCCCCC(=O)O)C(=O)O)NC(=O)[C@H](CC(=O)O)NC(=O)[C@H](CC(C)C)NC(=O)[C@H](CC(C)C)NC(=O)[C@@H](NC(=O)[C@H](CO)NC(=O)[C@H](Cc1ccc(O)cc1)NC(=O)[C@H](CC(=O)O)NC(=O)[C@H](CO)NC(=O)[C@@H](NC(=O)[C@H](Cc1ccccc1)NC(=O)[C@@H](NC(=O)CNC(=O)[C@H](CCC(N)=O)NC(=O)C(C)(C)NC(=O)[C@@H](N)Cc1c[nH]cn1)[C@@H](C)O)[C@@H](C)O)[C@@H](C)CC)C(=O)N[C@@H](C)C(=O)N[C@@H](C)C(=O)N[C@@H](CCC(N)=O)C(=O)N[C@@H](C)C(=O)N[C@@H](Cc1ccccc1)C(=O)N[C@H](C(=O)N[C@@H](CCC(=O)O)C(=O)N[C@@H](Cc1c[nH]c2ccccc12)C(=O)N[C@@H](CC(C)C)C(=O)N[C@H](C(=O)N[C@@H](C)C(=O)NCC(=O)NCC(=O)N1CCC[C@H]1C(=O)N[C@@H](CO)C(=O)N[C@@H](CO)C(=O)NCC(=O)N[C@@H](C)C(=O)N1CCC[C@H]1C(=O)N1CCC[C@H]1C(=O)N1CCC[C@H]1C(=O)N[C@@H](CO)C(N)=O)[C@@H](C)CC)[C@@H](C)CC [Polypeptide 1] (H-H[Aib]QGTFTSDYSILLDK([AEEA-γGlu-C20 diacid])IAAQAFIEWLIAGGPSSGAPPPS-NH2; N-terminus and C-terminus assumed)
stability in serum (in words) ([2]; cynomolgus monkey serum, 37° C.): higher than that of polypeptide 3; also recorded: significantly improve polypeptide stability | Activity ratio (%, Relative to the sample at 0 h) ([2]; incubation time at 37° C. 0 h (zero reference)): 100% | Activity ratio (%, Relative to the sample at 0 h) ([2]; incubation time at 37° C. 72 h): 67.13%

GIP (from UniProt P09681 52-93) (ligand)
EC50 (nmol/L), reporter gene in CHO-K1 cells (GIP receptor (human)): 0.059 nmol/L
